Experimental findings from publication PMC5382683, “Identified of a novel cis-element regulating the alternative splicing of LcDREB2” are described below.

For the data set, the target named is T1, RSZp21b (Oryza sativa, UniProt Q6K4N0 1-185).
T1 sequence: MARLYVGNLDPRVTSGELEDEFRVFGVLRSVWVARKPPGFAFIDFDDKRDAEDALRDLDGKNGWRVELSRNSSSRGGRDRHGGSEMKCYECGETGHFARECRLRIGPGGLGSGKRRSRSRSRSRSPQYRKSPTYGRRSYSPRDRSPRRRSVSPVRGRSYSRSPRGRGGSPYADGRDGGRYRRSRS
Kind of data set: EMSA; LightShift Chemiluminescent EMSA Kit (Pierce 20158) per manufacturer; 100-fold unlabeled probe as competitor; buffer, salt, pH, temperature not stated. Conditions: protein: recombinant; tags: His (pET30a, Ni column).

With ACUCUUGGCGCAGCAAAAGGGAGAUGCGC (ssRNA) [E3-2], the binding result was “binds”.
